Source: the DeepSol protein solubility set

Assay: soluble on expression in E. coli; label from the status in PepcDB or PDB records

| Sequence | soluble on expression in E. coli |
| --- | --- |
| MAPTNKDGDVATVKAVDVLKQKAGAHHCLGNVHANLPVNKVTVHPLVLLSVVDHFNRVSKTQSVKRVVGVLLGSMKKDKTLDIGNSFAVPFDEDDKDKSTWFLDMDYLESMYGMFYKVAAKEKIVGWYHTGPKLHKNDIAINEQLKRFCPNPVLVIIDAEPKNIGLPTEAYIEVQEVHDDGTPPIKTFEHVPSDIGAEEAEEVGVEHLLRDIKDQTAGTLSQRITDQLMGLRGLQSQLESIEKYLHDIVRGTLPVNHHVIYYVQEVLNLLPDVTHPDYIVSQNVQTNDQLMCVYMGSLVRSVVALHNLIDNKISLQKAEKEQETGEAEKKKDEKDKKDKKDEKKDEKKEKDSKSSTPNTPKK | not soluble |
| MGSDKIHHHHHHMSIYHDVIKSEVFPALGCTEPIAVAYAASLAAERLGAEVETVTASVDPGVFKNGFAVTVPKTGGLKGNVIAAALGALIARPELKMEILSGADERLLAQAELLVSSGRATVALVKERTDLYIDVVVTGGGRTARAVLEGGHTNIVRLECDGRILLNADEPVSAVDSHAYRAVLRQMTFSEMIGLLDDLDQGDLVYLKRGVEMNLRIAEEGKQLTKVGHYVEELVRKGFLLADVVSSSKILTASASDARMAGLPYPVMSSGGSGNQGIVAILVPYNVGMFFHVPEETILRSIALSHLVNAYIKCHTGDLAPICGCAIAAGVGAAVAIVYQQAGPDMHKIDLAVNTIISDIGGMLCDGAKGGCALKVVSSTDAAIRAAYMALNGHGISEEEGFVGKSAEETIHNLSRIADKGMALVDDTMLCIMLQKRSTEP | not soluble |
| YANRESLIKRYTLKVLEQIAWLPEAQSLDEAKVQEALEDASQTIDSYLGGRYVLPLKTVPAVLERHCCYIARYFLEKNRATDQARQDYEDTIRFLEKVASGAISLGLSDDDETVESENGAMMESAGSVWGRNT | not soluble |
| LEYSDSIDLLNMDLYDLMKLADRLTHYDAGETVSYAISYNINYTNYCTASCPICAFYVPYKNKRFGKGYELTKEQVRKEALIAKQKGATEIHIVGGFDPDLSIEYYEDIFRTIRGIMPNVAIKAFTIPEIDFIARTTGNSIKETVLRFMDAGMNAHTGGGAEIFDQEIRKYITTPEKVSGEKWLEDAKIIHSLGLKGNSTMTYGHIEGWEHIIDHMIRLRDNQIEVPGFLSFIPLKFSPENTALLRSGRVHGPAPVDKDLKVIALARIIMGRAIRNISVYWVAIGKLTAQIAINGGGNDLVGTAYSEKVFGATDRKTSTTTEELNNMIRQAGKIPGVR | not soluble |
| MGSDKIHHHHHHMMENSLNIIEKMNPNQKINYDRVFQKVRESWERDSVRPKILLHSCCAPCSTYSLEYLTQSADVTIYFANSNIHPSTEYTRRKMVQEQFVKDFNERTGNNVQFIAAEYEPNVFLQMVRQKHLENEPEGGKRCTSCFEMRLDIVAEKALELGFDYFGSALTLSPKKNSQLINEIGLDIQKIYDVNYLPSDFKKNNGYKRSVEMCKEYDVYRQCYCGCIFAAKAQGIDLKEQNREAIKFIRNQS | not soluble |
| MILNPQQRTKLDSRRDDLFYAAPRFVTHVDDFFLARLTDLYRQYLQPQMRVLDLMSSWVSHLPPELSFQEVVGHGMNAAELARNPRLDRYFVQNLNEELALPLEDASFNAVLMAVSVQYLQYPEATFTEIARILKPQGVVIVSFSNRMFFEKAIQAWREGSEGDRVQLVQTYINSTPSLKVIATHLPRLWPWRGFTDPFYAVVGQKQAVLEHHHHHH | soluble |
| SLKKEISILNIPFYNTTQAGFVEELYMAAKNGERRFVVTANPEIVMHARTDKEFEAILGQADYIVPDGIGIIMASEKLGEPLKERVTGYDTMVGLLNKPLSCYFLGAKPEISEVVEAKVREKFPQAVVCGVHHGYFDVLESEAIAKEILVAQPDVIFVALGSPAQEKWILSQIANFTKGIFIGVGGSFDVLTDSVKRAPKIWIKLRLEWVYRLLSNPSRWRRFFAIPQFMLVIRKERKRLKKG | soluble |
| MGSDKIHHHHHHMDSKSNSELARLEQAARAAWLYYVAKNTQDEIAQKLEVSRQSAQRLVALAVSEGLIKVRLDHPIVKCMELGQQLTQAFNLLECEIVPSDPADDSSVHGLAQCGAGVLERYLKSEQPKTLAFGTGRALKACIDELPSMQCPQHKIVSLLGNMMLDGSASAFDIVVSMANRVQAKHYPMPLPVIATSVAEKQLLHDLAPVKSIFELVIQADATFVGIGHMGAESPLLLDGFINQSQLTELINDNATGEIISWVYNQQGQLLDHSINELVMSSPLRIDSNKPVYGIAAGQHKVDAIFSALQGRLINSLITNEYTAERILAKLK | not soluble |
| MKELLKELVEKNRKFTADGNVANYIPELDKADKNALGIYVTTLDGQEFFAGDYNTKFTIQSISKIISLMLAILDNGEEYVFSKVGMEPSGDPFNSIRKLETSSRKKPYNPMINAGAIAVASMIKGKDDREKFSRLLNFAKLITEDDSLDLNYKIYIGESDTGFRNYSMAYFLKGEGIIEGNVNEALTVYFKQCSIEGTAKTISTLGKFLANDGVLSNGERILTTRMAKIIKTLMVTCGMYDSSGEFAVRVGIPSKSGVGGGICSVVPGKMGIGVYGPSLDKKGNSLAGGHLLEDLSAELSLNIFLEHHHHHH | not soluble |
| MGGTLLNISPTQHKILKLLIENEKISMREISEKLSVNMSTVSRNFRSLLESGFALKVEEASPGSSGGRKTALYTANPNKFFILGIGVEQNRLIGVVIDAKGNEVEKSEIHRSFRGDEIVNALVDCVEPFKEKYPNTVGISIGMPGIIKENKVIFSSALGIEDLDLGRILSKEFGTEIFVLNDANAAVVGYGFQKKNVVYFLISVPYYLNQPVGVGAGLWLEGSLYQGSNGAAGEFEIDILPSILSGPATLDEVDLKNLSSDSFLKLLSKLSEVASFVSYLLDPETVIFGGDITLFSPEFHSGLAKNVRDHLEKRHISDVEVLFDERGLWTVAFGAAKAFWKRILEDYEFAGKILK | not soluble |
| SNQDEPRCLFVKDADSQVDLQITFRGFSRPDPQLAASRLLRRVLAGGGCSRLHLNLRERLGIVYSVDAQVAAYDETGCFSIELSTAPENLLTAVEEVLGETRKLAAEPVGAEELRRVRQGYFFDLAYSEDSTFEMQVRYGWGELMGMVKGIDEERAEVEAVDEGTLQAVARRLFAPAALNLVAVGPVTATAKRRIEQLLRRYAKEFPTSSQPPGP | not soluble |
| MGSDKIHHHHHHSEDTMDRINKDHDHTTSVASRFILADVITSTAFSNASGDINTYASSYIEYEVGVDNQLYYAEVRENEPSSSSTFNNSWNGIYSSLKNARIIIDQCGEGGRDHGNDVTRGMAEVMAAYNCALIADFFGDAPCSQAALVDEKGSPVYMTPKMDTQQEIYTQIISYLDDAIANLQKEDLADVTEQDFLYAGDADKWLKFAYGLKARYTMRLINRSSNKSADYEKVLDYVSKSFTSADDQAAFDIYDSNNINPFYGFYNSRAGFGASTSLGTKLLAYNDPRANRAFFTPIVDKKRSQVAANDPSLVPAPNGSPDQSTSKYGISAFVYAKTAPTLLMSYHELMFLKAEALCRLNRDAEDALKEAVVAGLLNAENSISIAIKELGSGLNTNSSEVITETSAGKYFDDVVKAKYAANPLQETMIQKYLAMWGASGEATETYNDFRRMKGLNENFITLTNPNNSSKFPLRYPYGNSDTAANPEVKAAYGNGDYVYSEPVWWAGGSR | not soluble |
| MSTTVGRPSNEIASCQVCHSTERTRLYFGITSCAACAAFFRRSDGIRYMCTATNSCTISHDMKFFCRACRYTSCIRAGMVMSRNALATARKAPNNIIPREPTPRSVPSLEEVDGFSKILNISNGDLLKYYVKEVESIMAQQRYGEQKNALQVKSVNDLMIVTAYQEGTSLESCFNCPGVDILYNEDVEVVHKYFKFSNTWIDSLLAPTSPLDPSCNERISEFIHLLKSTLGSTLAQLNLNIIEYAAFKSFCIWKLVYHKTSISMKIVAQEHYEGVTSALRKYYRKNIKMSELEMATRIGDITLQIITVSNLYNDMARMYHQTGLQL | not soluble |
